According to IntAct's records for PubMed 23403928:

B1: Mitochondrial import inner membrane translocase subunit TIM23 (Saccharomyces cerevisiae), P32897 (parent)
chain: MSWLFGDKTPTDDANAAVGGQDTTKPKELSLKQSLGFEPNINNIISGPGGMHVDTARLHPLAGLDKGVEYLDLEEEQLSSLEGSQGLIPSRGWTDDLCYGTGAVYLLGLGIGGFSGMMQGLQNIPPNSPGKLQLNTVLNHITKRGPFLGNNAGILALSYNIINSTIDALRGKHDTAGSIGAGALTGALFKSSKGLKPMGYSSAMVAAACAVWCSVKKRLLEK
partner: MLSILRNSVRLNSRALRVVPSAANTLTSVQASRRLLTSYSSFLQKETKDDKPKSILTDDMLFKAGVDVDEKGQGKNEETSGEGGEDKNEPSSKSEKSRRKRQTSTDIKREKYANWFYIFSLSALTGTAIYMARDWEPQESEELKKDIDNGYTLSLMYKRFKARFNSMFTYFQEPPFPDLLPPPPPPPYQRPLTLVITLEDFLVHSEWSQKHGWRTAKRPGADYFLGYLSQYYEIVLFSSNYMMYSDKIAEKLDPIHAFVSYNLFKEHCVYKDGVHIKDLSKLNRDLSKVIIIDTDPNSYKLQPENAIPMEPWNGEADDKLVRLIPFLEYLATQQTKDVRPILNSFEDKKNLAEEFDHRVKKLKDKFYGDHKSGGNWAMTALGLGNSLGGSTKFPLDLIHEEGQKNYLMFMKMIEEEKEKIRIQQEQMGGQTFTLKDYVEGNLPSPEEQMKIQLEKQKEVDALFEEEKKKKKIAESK

Variants of: B1
Conditions: with tim50_yeast TIM50, Q02776

effect of a mutation on the interaction | Variant
disrupting interaction | MSWLFGDKTPTDDANAAVGGQDTTKPKELSLKQSLGFEPNINNIISGPGGMHVDTARLHPLAGLDKGVEAADLEEEQLSSLEGSQGLIPSRGWTDDLCYGTGAVYLLGLGIGGFSGMMQGLQNIPPNSPGKLQLNTVLNHITKRGPFLGNNAGILALSYNIINSTIDALRGKHDTAGSIGAGALTGALFKSSKGLKPMGYSSAMVAAACAVWCSVKKRLLEK [Y70A;L71A]
